Consider one molecule from US20200317791A1 (published 2020).

This test deals with T1, peptide on HLA-C*06:02 (human).
T1 peptide: TRATKMQVI
The experiment in a line: activation reporter or marker.

B1: TCR-TRAT (TCR, V domains shown)
Valpha: GEDVEQSLFLSVREGDSSVINCTYTDSSSTYLYWYKQEPGAGLQLLTYIFSNMDMKQDQRLTVLLNKKDKHLSLRIADTQTGDSAIYFCAESSNLSGNTPLVFGKGTRLSVIA
Vbeta: AAGVIQSPRHLIKEKRETATLKCYPIPRHDTVYWYQQGPGQDPQFLISFYEKMQSDKGSIPDRFSAQQFSDYHSELNMSSLELGDSALYFCASGLAGITGELFFGEGSRLTVL
For the molecule B1, the binding result is on record as “recognises”.
